Assay results from the supplement of paper PMC10126150.
± gives the standard deviation of the averaged measurements.

Each sequence was assayed on ATP (assay: switch fluorescence ratio, 500 uM ATP over buffer (Cy3 cluster intensity, sum of 5 cycles each) (fold (ratio)); higher = stronger signal-on switching upon ATP binding; sequences stand for … in TCGTCGGCAGCGTCAGATGTGTATAAGAGACAGTTTTTTTTTTTTTTTTTTTTTTTTT…TC). Details: aptamer strand: ATP DNA aptamer (quencher-CACCTGGGGGAGTATTGCGGAGGAAGG + anchor), 100 nM annealed; ATP concentration: 500 uM.
Summary of the method: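 Cy3-labelled switching-strand clusters on a modified Illumina MiSeq flow-cell were annealed to 100 nM quencher-labelled ATP aptamer and imaged first in selection buffer, then after 15 min with 500 uM ATP at 22 °C. NaOH stripping and re-annealing separated each of five buffer/ATP cycles, and clusters outside 100-1000 RFU were excluded. The fluorescence ratio sums target-cycle Cy3 intensity over buffer-cycle Cy3 intensity per cluster and averages it per switch-domain sequence.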
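Also: ATP exposure 15 min at 22 °C before imaging.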

| Sequence | switch fluorescence ratio |
| --- | --- |
| GCCCCCTTCG | 1.08 ± 0.065 |
| GCCCCGGGGA | 1.04 ± 0.011 |
| GCCCCGGGGT | 1.03 ± 0.056 |
| GCCCGGAGAC | 1.71 ± 0.025 |
| GCCCGGATTT | 1 ± 0.047 |
| GCCCGGGCGC | 1 ± 0.014 |
| GCCCGTCCTG | 1.04 ± 0.015 |
| GCCCTATAGG | 1.01 ± 0.011 |
| GCCCTGATGC | 1.01 ± 0.051 |
| GCCCTGCATG | 1.01 ± 0.052 |
| GCCCTTAGCG | 1.06 ± 0.073 |
| GCCGAAGGGT | 1.02 ± 0.03 |
| GCCGAATTTG | 1.028 ± 0.0068 |
| GCCGCAGGTC | 1.23 ± 0.083 |
| GCCGCAGTTT | 1.31 ± 0.18 |
| GCCGCCGTGT | 0.983 ± 0.031 |
| GCCGGAGTGG | 0.982 ± 0.024 |
| GCCGGATCTT | 1.01 ± 0.02 |
| GCCGGATT | 1.01 ± 0.04 |
| GCCGGGAGGA | 1.01 ± 0.032 |
| GCCGGGAGGG | 0.985 ± 0.025 |
| GCCGGGATCG | 0.97 ± 0.03 |
| GCCGGGCAAC | 0.995 ± 0.037 |
| GCCGGGCCGG | 0.9666 ± 0.0055 |
| GCCGGGGTTA | 0.9966 ± 0.0088 |

| Sequence | switch fluorescence ratio |
| --- | --- |
| GCCGGTTAGA | 0.998 ± 0.03 |
| GCCGTAGCTG | 1.02 ± 0.037 |
| GCCGTAGTCG | 1.03 ± 0.042 |
| GCCGTATGCG | 0.992 ± 0.019 |
| GCCGTCTAAG | 0.993 ± 0.022 |
| GCCGTCTGGC | 1.02 ± 0.045 |
| GCCGTGGAG | 1.0133 ± 0.00012 |
| GCCGTGGGGC | 0.997 ± 0.061 |
| GCCGTGTTTT | 1.006 ± 0.0018 |
| GCCGTTACTG | 1.05 ± 0.031 |
| GCCGTTATGG | 1.02 ± 0.053 |
| GCCTAACACT | 1.01 ± 0.04 |
| GCCTAAGGGA | 1 ± 0.0063 |
| GCCTAATTGA | 0.98434 ± 0.00034 |
| GCCTACGGCC | 1.004 ± 0.0021 |
| GCCTAGCATA | 1.02 ± 0.018 |
| GCCTATGCGG | 1.01 ± 0.0033 |
| GCCTCAAGTT | 1.03 ± 0.052 |
| GCCTCCCGGG | 1.136 ± 0.0053 |
| GCCTGAAGGG | 1 ± 0.014 |
| GCCTGAGGGA | 1.05 ± 0.049 |
| GCCTGCCGTT | 0.996 ± 0.033 |
| GCCTTAGCGG | 1.03 ± 0.048 |
| GCCTTATTTT | 1 ± 0.027 |
| GCCTTCTGGA | 1.05 ± 0.036 |

| Sequence | switch fluorescence ratio |
| --- | --- |
| GCCTTGCCTT | 1.03 ± 0.013 |
| GCCTTTTCTG | 0.962 ± 0.031 |
| GCCTTTTTTT | 0.991 ± 0.029 |
| GCGAAAAGGG | 1.024 ± 0.0069 |
| GCGAAACAGG | 1.11 ± 0.06 |
| GCGAAAGGGT | 1 ± 0.015 |
| GCGAACGCGC | 1.27 ± 0.011 |
| GCGAATAGTT | 1.005 ± 0.0067 |
| GCGAATGATG | 0.966 ± 0.024 |
| GCGAATGCGG | 1.006 ± 0.003 |
| GCGACAAGAG | 1.03 ± 0.067 |
| GCGACAGGAC | 1.48 ± 0.12 |
| GCGACGGGCG | 0.972 ± 0.044 |
| GCGACTAGGC | 1.03 ± 0.068 |
| GCGAGAAATC | 1.08 ± 0.019 |
| GCGAGAACGG | 1.01 ± 0.034 |
| GCGAGATGAT | 0.977 ± 0.022 |
| GCGAGCAGTA | 1.01 ± 0.028 |
| GCGAGCCACG | 1.007 ± 0.0076 |
| GCGAGCGGGT | 1 ± 0.016 |
| GCGAGGGATG | 1.002 ± 0.0043 |
| GCGAGGGTGT | 1.12 ± 0.039 |
| GCGATACTCG | 3.56 ± 0.16 |
| GCGATCGTTT | 0.992 ± 0.011 |
| GCGATGGTCG | 0.937 ± 0.14 |

| Sequence | switch fluorescence ratio |
| --- | --- |
| GCGATTATAT | 0.969 ± 0.049 |
| GCGATTGGAT | 1.03 ± 0.0022 |
| GCGATTGGGG | 0.9705 ± 0.0044 |
| GCGATTTATG | 0.9723 ± 0.0051 |
| GCGCAATCTG | 1.98 ± 0.52 |
| GCGCATAGGG | 1.04 ± 0.044 |
| GCGCATTAGC | 1.3 ± 0.061 |
| GCGCGAGTAG | 1.03 ± 0.028 |
| GCGCGCTAGT | 1.007 ± 0.0024 |
| GCGCGGCTTC | 1.03 ± 0.034 |
| GCGCGTATAT | 1.07 ± 0.044 |
| GCGCGTCAAG | 1.012 ± 0.009 |
| GCGCGTTTTT | 1 ± 0.016 |
| GCGCTAATTT | 1.28 ± 0.59 |
| GCGCTAGGGC | 1 ± 0.014 |
| GCGCTCGTAC | 2.27 ± 0.15 |
| GCGCTTGAAC | 1.15 ± 0.051 |
| GCGCTTGAGG | 1.006 ± 0.0083 |
| GCGCTTGGAA | 1.02 ± 0.049 |
| GCGCTTTTCT | 0.9784 ± 0.0063 |
| GCGGAAAGAA | 0.962 ± 0.02 |
| GCGGAAAGGA | 1 ± 0.038 |
| GCGGAAAGGG | 0.992 ± 0.021 |
| GCGGAAGGG | 0.996 ± 0.0087 |
| GCGGAATAGG | 1.038 ± 0.0062 |
